In general, Kd refers to the free concentration of one partner at which half of the binding sites on the other are occupied at equilibrium, for simple one-to-one binding. Read a high Kd as lower affinity.

The target of the assay is FGFR1 extracellular domain (UniProt P11362). The assay is described as follows: optical biosensor.
UniProt P11362, sequence (P11362 22-376): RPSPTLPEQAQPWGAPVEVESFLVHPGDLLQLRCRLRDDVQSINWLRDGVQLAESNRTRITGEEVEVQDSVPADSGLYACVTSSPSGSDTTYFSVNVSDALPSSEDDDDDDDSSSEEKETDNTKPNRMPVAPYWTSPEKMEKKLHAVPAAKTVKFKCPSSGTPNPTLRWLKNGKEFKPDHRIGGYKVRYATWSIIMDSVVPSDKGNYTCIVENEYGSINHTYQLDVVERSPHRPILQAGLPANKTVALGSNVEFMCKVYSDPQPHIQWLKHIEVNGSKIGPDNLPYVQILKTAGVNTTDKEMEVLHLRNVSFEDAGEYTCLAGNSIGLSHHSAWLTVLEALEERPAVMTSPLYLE

“Ncad-Fc (from UniProt P19022 160-724) (Fc fusion)” returned a dissociation constant Kd of 106 nM. This counts as sub-micromolar.

The record behind these values is publication doi:10.1101/465930.
